# Measurements taken from doi:10.1101/634592.
# Assays:
# [1] = target: PI4KB phosphorylated at Ser496 (E. coli produced, PKA treated) (human) (UniProt Q9UBF8); assay: HDX-MS
# [2] = target: PI4KB (isoform 2, E. coli produced, non-phosphorylated) (human) (UniProt Q9UBF8); assay: HDX-MS
substance,measurement,setting,value
"c10orf76 (untagged, E. coli produced) (from UniProt Q5T2E6 1-689) (natural protein)",Kd,[1],85 nM
same,Kd,[2],30 nM
